Results on 69 sequences are retold here after the domain aggregation screens of Martell et al. (2025).

This data set can be described thus: soluble fraction after stress (log2 fold change); higher = more stays soluble; pooled small domains, quantitative proteomics. The following applies: stress: 50 degC. Summed up: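 Quantitative proteomics served as the high-throughput read-out for pooled custom libraries of small protein domains. Each was stressed at 50°C. Aggregation propensity is expressed as the base-two log fold change in soluble protein after stress. A higher value means a larger share of the protein remains in solution.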

“HMSENPLTSREIEIVQLLANGKTTKSIAEELHLSNGTIRNYVSIVLDKLNVSNRIEAIRKALDKGWL”: the “soluble fraction (log2)” value was -1.29.
The result for “HMSNYYNILGVNKSSTQDEIKKAFRKKAVEHHPDKGGNEATFKKINEAYNTLSDNNKRHMYDMQQSG” reads 0.213; that for “HMGRTKEEIFNILKERIVTLQYEPGKILNEIELSEEFEVSRTPIRTVFQQLEAVKLVSIVPRYGVQVA”, -1.27; that for “HMSAEVEVPDVVGRQVALAVQLIETKKLRVNVAETYDAKVPPGQVISQSPEAGMKVKEERVITIYVSR”, -0.167.
Next, “HMDEYILTLDEVKELLKSKDYDDLKNVLKWSNKFQKDTIIQTAISEKVSDANVINIIKEITGQDITSLIV”: 0.0322.
The result for “HMRSKTDLVYEEIKKLILRGELSSDTPISENHLARRFEISRTPIREALKRLHIEGFVRIIPNHGVFVR” reads -0.343; that for “HMYSYSFTSSEGSTFEGQLIRVEESQVTILRYADQKEFSIPKSRFIEADQVYFERWAIENPQL”, -4.33; that for “HMSTMVEIPNVVGMTIKEAKEALGNLGLSISKISGSNEDSAIVTEVSPAPGSSVKRDESITLVGQPK”, 0.0366.
In the case of “HMLPPVFLTIDANENVIVRKDGEPVQTLNKFELGAFARSQAENSAEQPVVLAADKSIKYEVVMEVI”, the “soluble fraction (log2)” value was 0.0698.
The result for “HMLVSFGDHLKRYIYERAGIEEPFGEVPQEIYRDIAVDSFRETYTPKSMNPTSTKLPALVNNWLIQ” reads -0.746; that for “HMGKIFSELTPREIEVVRLIADGLSNQQIAEELFLSNGTVRNHISTILEKTGLEHRTQIAVMWLR”, -0.146; that for “HMALPHEIKQKWLEEIMTMLRSSDSVTINKVYLHFPENKSHWVDEILTDLSNTHMITRQHDFIRLKN”, -0.282.
The result for “HMRVLEYTADGSRLDVLLSQDGVLSRSRAAELIKGGAVTVDGRAEGKPSAKPAPGALVRVEVPE” reads -0.01; that for “HMREKMKGKILDYNFQESRGIISADDGNRYSFENSQWKGTQSPKVNQIVDFEIDGQNAKDIYLDK”, 0.162.
The result for “HMIMGTIEKRGPFSFRIGVQVRLPDGSWEWIRDTIHVSPDLSARAARKQAEMALARLEADVYEGKRKPD” reads -0.878; that for “HMFDSYDIYDEAGNTVNTVKGKLSWGHLLEIYDRFDNHIGTVQERVLTFLPKFLMYINGQEIGEIR”, -0.0596; that for “HMQISDTASIQEIAKEIIKSNPKAVEDYKKGKENALQFLVGQLMTKTKGTVHPGAARTILGDILK”, 0.0851.
As for “HMLLFNVADIVKRAKRVLNFKTDAELAAYLGVSRPTLSNWIARNGIDFPLLLEKLKEIDYNWLLVGKGKPE”, the “soluble fraction (log2)” value is -2.33.
Next, “HMYRLSPSWRIVERDDGFEIYGGDDARFQLDPSPLVSRLAAGDAVTRDGLDPTGAIEFEQLLSAGMIRPEI”: -0.124; “HMTTYVNGSWSGWNGSTVVKLTDGSVWRQAEYHYEYHYAYRPQARLERDELFVEGMSRGVRV”: -0.104; “HMENIEVDFGVGDTVSVIGGAWKDTVGVVQAMNPNKQSLTINVELFGRETPVEISFTDVQKM”: -0.0126.
The result for “HMEFSYLEEIGHEKGDLIKGLQLIQQKEGYVSDDAVRAVAENFGMSPAEVEGVLTFYAQFKR” reads -0.061; that for “HMPGTPADQVAELQTKVGTETKTGDMITQDDVKLLQTALDPLAKMNDRIQAAKILESKGIVTSDGNLRT”, 0.124; that for “HMNNIINEAQIKQWVEEFYLSVSPRPTRATMIALVHKKIKEETKDGEEGQTVSETLINNFYTALEKEHKRK”, -0.0384.
The result for “HMDTIYMVVAKNIKYYRLIKSMSKKDLAEAVNVTPMAISNYENGKRKPEIDILKKIANVLGVRVVDFLTVR” reads -1.73; that for “HMIYRTTSVPIDNISTQKFNLQEGWIEMNKNEVEDFIRQKNLELVVTDSNVMLDKFALNGDPNKFKVFKY”, -0.094; that for “HMPVSDLQSALRNTLSKGDATDPAFRQRVYRAAMDALERATGSESDPQRRSEQKQRLIAVIRDMEASYRR”, 0.277.
For the sequence “HMSGQKDVPDLYGMTVKQAKKEVEAAGFKLKEGKEVYSNDYSKGQIAEQDPESGSKAKKGSSITVHVSKG”, the “soluble fraction (log2)” value was found to be 0.0677.
Next, “HMRRHLLEMNDAIGRLGRLISEDPADRDVAEVIWAALRGMVMGQMIMNEPIDWQRERRTLVEMAIGR”: 0.0146.
Next, “HMQPVEHLPTTDPLTTSAASEHERYEKVRWWLEEMQRTYETGDEVRAERIRLSLIEQMYKWEGE”: -0.185; “HMSRLLERARDLMAKPGAWLSAEGGAYALRLSPDRRSRISLTLTETEFRALIDQPGLRVRPGGGWSGRA”: -3; “HMATIGVGSKVTLTTYVDWVGNGLLKTRDFYFVSELNGKRAVLRADSMNGAIYAAVNIDNLRI”: -2.56.
Next, “HMFKYLLDTNIVIYVIKKRPIEVMGVFNQNANRMAISAITFSELQHGAEKSVRVQENLNAIEEFTTLIDI”: 0.181.
As to “HMFNFPEEVRVQLAKSEQLRNLLIPMSETVRDALSGEELWFGRTIFNTTSKKIESWTNPGVWVE”, the “soluble fraction (log2)” value was -1.45.
The result for “HMQNNIEFTVLEEDAQKRLDVLLSEKTALSRSASASLIEEGGVLVNGRKEPKKYKPVRGEIITAILPE” reads -0.0707; that for “HMEKLNERLLYLRKNANLTQQQLADKLHISNKTISQWETGRTLPDIVMLVRLAEIYDMKLDELLNQ”, -0.29.
The result for “HMAVVQMVDRPGGLDELLKDVVRAGVNFANAYGRTASDGNSAFFVIDIQDIPGARQKLADVGLQILADEAV” reads -0.192.
In the case of “HMDLRIKEIMSERNVTSAWLAEKVGISKVAVSNIVTGKSSPSLDNLLKIADALNVSITTLIG”, the “soluble fraction (log2)” value is -0.824.
The result for “HMLQEFTLELATAVVQEFRDQPGALINALHKLQETFGYVDEAAMPVLARLFNLSRAEVHGVASFYHDFRRS” reads -1.49; that for “HMVNIAVMTVSDTRTEADDKSGSLLVSKIEGDGHVLADRAIITDDVPRIIAKLKEWIESPQVDVVVT”, 0.0468.
In the case of “HMPAQPEPYNNLARLYSAQGKLDQAASLLRAGLYTDPAYRALFDNLTRIYAEQAARSLSAALD”, the “soluble fraction (log2)” value is -0.907.
The result for “HMYEDNERNLYSVVINFLNEHKIKISREAINLVINRSSGDKHNLKQELNKILNYSFSNKNITYETIEKLSN” reads -0.585.
Next, “HMKELTARQIEILDFITNYEWRHGYWPSIRNIQVQFSYKSTNAVMGHLRALERKGAIERIPGQARTFRIH”: -2.97; “HMYFGDADGNKKVDAADALYLKRHLADWEDYRELPQKTNVSWMDEASPANLMILERHIAGWKDYEMLPYT”: -0.293; “HMKPATSITFIPSERPDLVEQLSKITFDKKDSLYENYINLNWLTFEAISVYMREGDIIGFST”: 0.0284.
Next, “HMTEPKRIVDHWQPSDDVYDILRMSHIDLDFARSLLPEFIVYWKDSSQTHTSWNSKFLQHAKYHWAKRHQL”: -2.08.
Consider “HMDYGSLQRAIENQLEVRNYQKPKKFLTKIIQLMETIMVRHGVMVVGLTGTGKTTVIETLSRSMEQ”, for which the “soluble fraction (log2)” value was -0.302.
The result for “HMKVKGVYQLDNGYWGYRFTMLVNGKTVSQRRVKDESGNPFKTEKKAEKARLVAMAEEQTKANK” reads -2.11; that for “HMRSPVDALSNRELQVLQMVGRGLSSRQVAEALHLSVKTVEAHRQRIKGKLGLRTGAQLVQFAANWVTG”, -1.27; that for “HMNQIDEATAATITTLNFLNTNSEFKIPVGDTATRPGTPAIGMMRFNSENDKAEIYVADFDGDGNPGWINL”, -0.189.
Next, “HMLGVKKFGGEAVIAGNIILRQRGTKWITGSNVGIGKDHTLFAKIEGYVVFERMRGRDGQQQISIYP”: -0.101; “HMRGVNEISYTTLISEVSGGNVRDVVISGDEITGTFNDGSRFHSFSPDDPQFIERLNDQGVIINVKPL”: -0.0829; “HMIPLKTEAIPVSYGDGAAIIRSLAVAFPSRTFHWDAQTRRIIGQALDEEWQVIRSLVWQLDIP”: -0.584.
“HMTHRRLELTLDAIDERLDRALTAAVPELSRMQWQRLIREGLVTVDGERARPSYRIQGGETLVALVPEV”: the “soluble fraction (log2)” value is -0.234.
For the sequence “HMSHFRMLPSITEADAFLKSRSLPAGLEVREQVDAFLAQARQTLALAQEAPWLSKQEVLETLADEFVQTS”, the “soluble fraction (log2)” value was -0.496.
The result for “HMNKKETRLNNFIHFLKIRNSITVKEMANHLNVSEMTVRRDIKELTADHTINFENGKIMFNPQSSL” reads -1.06; that for “HMSRSKLNRLDKIKKMLIAQTGISIKEFSASLNVSEITIRRDLNLLEEQGFIRLVNGVAIYRM”, -1.55.
For “HMKSNESAELGERMLNKALLALHTDSSKISDTQWQKLLRDYGAKNKQEILTDIGLGKRLNVMVAHQLMAMG”, the “soluble fraction (log2)” value is -0.0795.
Next, “HMNPFPDNTAEVLSQFKNIIVPELNTGQLSKLLRARYLVDTVGINKVEGLPFTAQELEEKIESLINSF”: -0.323; “HMDIYENIDKELSKQGKSRRKLAIAAGIPPSTFQSMMERKRGLSVENLRKIAEVLNLKWYDLL”: -0.195; “HMDTGKLQSLVGSRGVAHTVLRPSGKVMIGDDVYPAVAETGFIPRGTAIVVRREEQGQLYVVEARK”: 0.179.
Next, “HMDRASGEEEALKEAEDAISRVWEFDGPVELNPQNSYLRRLQHELASRYNVKSVSIGQEPNRRVVYYK”: -0.0181; “HMTSNEKARNAASAERRADIVAAARELYEEQGLSKTSVQDITNRMGVARSLFYHYFPDKEAVTSAVLDDYV”: 0.244.
The result for “HMTSRIHDYWTSPGQPGYAKIGWGTAGDFRRAKALIGEKIAANSPEDMRYLNQIIAQWHFDALGYWPGDH” reads -2.49.
On to “HMEHQLLHMEKTIFEEIADDYPQLNHTKIRNVLAAFLFTNDDVFKRIADLSGGERGRVSLAKLMLSDA”, for which the “soluble fraction (log2)” value was -0.188.
Next, “HMNIGELINKKRTELGLTLEEVGNAVGVSKSTVKKWEDGFISNMRRDKISKLAKVLEMNPVSLITGE”: 0.0389; “HMNNDSQYLATLQRYYAEHRVLPSYARMLPLLGFASKAAVKKVLERLEVVGMLERTEDGDWAPSERFFER”: -1.7.
The result for “HMDQNDYMLTRIRNGQMRNKVSVSMPASKIKSAIAAVLKDEGYIENFALNDSSGKPSLIVNLKYYAGQPV” reads -0.0135; that for “HMVTTDPIADMLTRIRNASSQKHKSVDVPASKEKLAIAQILFEEGYIKSFEEIKEENNQGVIRITLKYTEK”, -0.0766.
